From patent US20090035266A1 (US Dept. of Health and Human Services, published 2009)

B1: MUC-1 peptide (peptide)
peptide: ALWGQDVTSV
notes: Positive control of the T2 assay; also called positive control
B2: P16 (native) PAGE4 peptide, amino acids 16-25 (peptide)
peptide: QEAPDVVAFV
notes: Synthetic peptide, purity >95%; also called P16-25

Molecular target: T1, HLA-A2 molecules on T2 cells (human)
T1 construct: whole, on cells; MHC class I molecule on the cell surface; also called HLA-A2.1
Assay: T2 cell HLA-A2 upregulation assay, flow cytometry
Description: (§1) The primary amino acid sequence of human PAGE4 was analyzed for consensus motifs for novel HLA-A2 binding peptides. Two 10-mer peptides (P16-25 designated as P16 and P59-68 designated as P59) and one 9-mer peptide (P84-92 designated as P84) were identified and evaluated (Table 1). […] For this reason, five different analogues of native peptides were synthesized and were investigated for their binding ability to HLA-A2-positive T2 cells along with the native P16, P59 and P84 peptides. A MUC-1 peptide and a CEA HLA-A3 binding peptide (CAP-7) were used as a positive and negative control, respectively (Tsang et al., J Natl Cancer Inst 1995; 87:982-90).

binding result | Binder
no binding (tested: 25 µg/ml) | VEGDCQEMDL (Synthetic peptide; also called P59-68) [P59 (native) PAGE4 peptide, amino acids 59-68]

Molecular target: T1, HLA-A2 molecules on T2 cells
Assay: T2 cells loaded overnight with 12.5 µg/ml peptide, washed, brefeldin A, surface HLA-A2 by flow cytometry (FIG. 1B)
Description: FIGS. 1A and 1B are line graphs showing the binding of native PAGE4 peptides and their agonist peptides to HLA-A2 molecules. Peptides were analyzed for binding to T2 cell line as described in Example 1. For the results presented in FIG. 1A, peptides were used at concentrations of 0 to 25 μg/ml. P16 peptide (◯), P16-1, P16-2 (▴), P84 (□) and P84-1 (▪), positive control (MUC-1 peptide) (+) and negative control (HLA-A3 binding peptide) (X). Results are expressed in mean fluorescence intensity (MFI). FIG. 1B presents a comparison of the stability of HLA-A2 peptide complexes of PAGE4 native and agonist peptides. T2 cells were incubated overnight with P16 peptide (◯), P16-1, P16-2 (▴), P84 (□) and P84-1 (▪) peptides at a concentration of 12.5 μg/ml and then were washed free of unbound peptide and incubated with brefeldin A to block delivery of new class 1 molecules to the cell surface. At the indicated times, cells were stained for the presence of surface peptide-HLA-A2 complexes. Results are expressed in relative percentage of binding compared with 100% at time 0.
The analogues of P16 were designated P16-1 and P16-2, and the analogue of P84 was designated as P84-1. These peptides bound to HLA-A2 at higher levels than their native peptides. Studies were then conducted to examine the ability of these peptides to bind HLA-A2 at various concentrations. […] Studies were then undertaken to examine the stability of the peptide-MHC complex for the peptides P16, P84, P16-1, P16-2 and P84-1. Each peptide was incubated with T2 cells overnight, the unbound peptides were washed off, and the cells were then incubated with Brefeldin A to block delivery of new class I molecules to the cell surface. Cells were analyzed for the presence of peptide-HLA-A2 complexes at various time points.

percent of peptide-HLA-A2 complexes remaining over 8 hours [%] | Binder
> 43.6 | KTPPNPKHA (Synthetic peptide; also called P84-92) [P84 (native) PAGE4 peptide, amino acids 84-92]
> 43.6 | YLPPNPKHV (also called P84-1) [P84 (84Y/85L/92V) PAGE4 agonist peptide]
> 43.6 | QLAPDVVAFV [P16 (17L) PAGE4 agonist peptide]
> 43.6 | YLAPDVVAFV (also called P16-2) [P16 (16Y/17L) PAGE4 agonist peptide]

Molecular target: T1, HLA-A2 molecules on T2 cells
Assay: T2 cell HLA-A2 upregulation assay, flow cytometry, peptide 25 µg/ml
Description: as §1
Peptides were used at a concentration of 25 μg/ml. Amino acids are shown by the single-letter code. Substitution amino acids are indicated in bold italic and underlined. MUC-1 peptide is an HLA-A2 binding peptide and CAP-7 is an HLA-A3 binding CEA peptide. ^aResults are expressed in mean fluorescence intensity (MFI). Values in parentheses are fold increases as compared with the negative control.

T2 binding (MFI) | fold increase as compared with the negative control [fold] | Binder
710 | 2.7 | B1
246 | 0.9 | VEGDCQEMDL (Synthetic peptide; also called P59-68) [P59 (native) PAGE4 peptide, amino acids 59-68]
293 | 1.1 | VLGDCQEMDL (also called P59-1) [P59 (60L) PAGE4 analogue peptide]
270 | 1.04 | KTPPNPKHA (Synthetic peptide; also called P84-92) [P84 (native) PAGE4 peptide, amino acids 84-92]
546 | 2.1 | YLPPNPKHV (also called P84-1) [P84 (84Y/85L/92V) PAGE4 agonist peptide]
309 | 1.2 | B2
827 | 3.2 | QLAPDVVAFV [P16 (17L) PAGE4 agonist peptide]
790 | 3 | YLAPDVVAFV (also called P16-2) [P16 (16Y/17L) PAGE4 agonist peptide]
384 | 1.5 | YLGDCQEMDV (also called P59-2) [P59 (59Y/60L/68V) PAGE4 analogue peptide]
